From US20220298218A1 (ANTAG THERAPEUTICS, published 2022) come the findings set out here.

Where no end group is shown, it is not given here. The star is where a group is joined. C16 diacid = O=C(O)CCCCCCCCCCCCCCC(=O)*

Sequences and labels used below:
T1: human GIP receptor (human, UniProt P48546 22-466)
T1 sequence (looked up): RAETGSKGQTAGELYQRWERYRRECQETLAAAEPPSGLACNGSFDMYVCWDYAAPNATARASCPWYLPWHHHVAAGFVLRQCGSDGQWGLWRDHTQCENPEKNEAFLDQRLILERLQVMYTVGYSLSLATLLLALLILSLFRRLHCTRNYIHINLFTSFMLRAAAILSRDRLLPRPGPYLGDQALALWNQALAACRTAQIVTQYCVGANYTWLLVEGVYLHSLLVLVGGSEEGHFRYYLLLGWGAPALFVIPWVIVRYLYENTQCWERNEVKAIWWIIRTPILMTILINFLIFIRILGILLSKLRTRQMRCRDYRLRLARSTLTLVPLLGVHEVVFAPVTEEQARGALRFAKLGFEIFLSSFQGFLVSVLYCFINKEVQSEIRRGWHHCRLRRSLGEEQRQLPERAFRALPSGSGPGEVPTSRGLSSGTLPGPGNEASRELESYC

B1: AT621 (peptide)
peptide: EGTFISDYSIAKDKIK(C16 diacid)QQDFVNWLLAQKPSSGAPPPS-OH
modifications: N-terminus assumed
SMILES: CC[C@H](C)[C@H](NC(=O)[C@H](CO)NC(=O)[C@H](Cc1ccc(O)cc1)NC(=O)[C@H](CC(=O)O)NC(=O)[C@H](CO)NC(=O)[C@@H](NC(=O)[C@H](Cc1ccccc1)NC(=O)[C@@H](NC(=O)CNC(=O)[C@@H](N)CCC(=O)O)[C@@H](C)O)[C@@H](C)CC)C(=O)N[C@@H](C)C(=O)N[C@@H](CCCCN)C(=O)N[C@@H](CC(=O)O)C(=O)N[C@@H](CCCCN)C(=O)N[C@H](C(=O)N[C@@H](CCCCNC(=O)CCCCCCCCCCCCCCC(=O)O)C(=O)N[C@@H](CCC(N)=O)C(=O)N[C@@H](CCC(N)=O)C(=O)N[C@@H](CC(=O)O)C(=O)N[C@@H](Cc1ccccc1)C(=O)N[C@H](C(=O)N[C@@H](CC(N)=O)C(=O)N[C@@H](Cc1c[nH]c2ccccc12)C(=O)N[C@@H](CC(C)C)C(=O)N[C@@H](CC(C)C)C(=O)N[C@@H](C)C(=O)N[C@@H](CCC(N)=O)C(=O)N[C@@H](CCCCN)C(=O)N1CCC[C@H]1C(=O)N[C@@H](CO)C(=O)N[C@@H](CO)C(=O)NCC(=O)N[C@@H](C)C(=O)N1CCC[C@H]1C(=O)N1CCC[C@H]1C(=O)N1CCC[C@H]1C(=O)N[C@@H](CO)C(=O)O)C(C)C)[C@@H](C)CC
B2: AT623 (peptide)
peptide: EGTFISDYSIAMDKIK(C16 diacid)QQDFVEWLLAQAPSSGAPPPS-OH
modifications: N-terminus assumed
SMILES: CC[C@H](C)[C@H](NC(=O)[C@H](CO)NC(=O)[C@H](Cc1ccc(O)cc1)NC(=O)[C@H](CC(=O)O)NC(=O)[C@H](CO)NC(=O)[C@@H](NC(=O)[C@H](Cc1ccccc1)NC(=O)[C@@H](NC(=O)CNC(=O)[C@@H](N)CCC(=O)O)[C@@H](C)O)[C@@H](C)CC)C(=O)N[C@@H](C)C(=O)N[C@@H](CCSC)C(=O)N[C@@H](CC(=O)O)C(=O)N[C@@H](CCCCN)C(=O)N[C@H](C(=O)N[C@@H](CCCCNC(=O)CCCCCCCCCCCCCCC(=O)O)C(=O)N[C@@H](CCC(N)=O)C(=O)N[C@@H](CCC(N)=O)C(=O)N[C@@H](CC(=O)O)C(=O)N[C@@H](Cc1ccccc1)C(=O)N[C@H](C(=O)N[C@@H](CCC(=O)O)C(=O)N[C@@H](Cc1c[nH]c2ccccc12)C(=O)N[C@@H](CC(C)C)C(=O)N[C@@H](CC(C)C)C(=O)N[C@@H](C)C(=O)N[C@@H](CCC(N)=O)C(=O)N[C@@H](C)C(=O)N1CCC[C@H]1C(=O)N[C@@H](CO)C(=O)N[C@@H](CO)C(=O)NCC(=O)N[C@@H](C)C(=O)N1CCC[C@H]1C(=O)N1CCC[C@H]1C(=O)N1CCC[C@H]1C(=O)N[C@@H](CO)C(=O)O)C(C)C)[C@@H](C)CC
B3: AT625 (peptide)
peptide: EGTFISDYSIAMDKIK(C16 diacid)QQDFVNWLLEQKPSSGAPPPS-OH
modifications: N-terminus assumed
SMILES: CC[C@H](C)[C@H](NC(=O)[C@H](CO)NC(=O)[C@H](Cc1ccc(O)cc1)NC(=O)[C@H](CC(=O)O)NC(=O)[C@H](CO)NC(=O)[C@@H](NC(=O)[C@H](Cc1ccccc1)NC(=O)[C@@H](NC(=O)CNC(=O)[C@@H](N)CCC(=O)O)[C@@H](C)O)[C@@H](C)CC)C(=O)N[C@@H](C)C(=O)N[C@@H](CCSC)C(=O)N[C@@H](CC(=O)O)C(=O)N[C@@H](CCCCN)C(=O)N[C@H](C(=O)N[C@@H](CCCCNC(=O)CCCCCCCCCCCCCCC(=O)O)C(=O)N[C@@H](CCC(N)=O)C(=O)N[C@@H](CCC(N)=O)C(=O)N[C@@H](CC(=O)O)C(=O)N[C@@H](Cc1ccccc1)C(=O)N[C@H](C(=O)N[C@@H](CC(N)=O)C(=O)N[C@@H](Cc1c[nH]c2ccccc12)C(=O)N[C@@H](CC(C)C)C(=O)N[C@@H](CC(C)C)C(=O)N[C@@H](CCC(=O)O)C(=O)N[C@@H](CCC(N)=O)C(=O)N[C@@H](CCCCN)C(=O)N1CCC[C@H]1C(=O)N[C@@H](CO)C(=O)N[C@@H](CO)C(=O)NCC(=O)N[C@@H](C)C(=O)N1CCC[C@H]1C(=O)N1CCC[C@H]1C(=O)N1CCC[C@H]1C(=O)N[C@@H](CO)C(=O)O)C(C)C)[C@@H](C)CC
B4: AT624 (peptide)
peptide: EGTFISDYSIAMDKIK(C16 diacid)QQDFVNWLEAQKPSSGAPPPS-OH
modifications: N-terminus assumed
SMILES: CC[C@H](C)[C@H](NC(=O)[C@H](CO)NC(=O)[C@H](Cc1ccc(O)cc1)NC(=O)[C@H](CC(=O)O)NC(=O)[C@H](CO)NC(=O)[C@@H](NC(=O)[C@H](Cc1ccccc1)NC(=O)[C@@H](NC(=O)CNC(=O)[C@@H](N)CCC(=O)O)[C@@H](C)O)[C@@H](C)CC)C(=O)N[C@@H](C)C(=O)N[C@@H](CCSC)C(=O)N[C@@H](CC(=O)O)C(=O)N[C@@H](CCCCN)C(=O)N[C@H](C(=O)N[C@@H](CCCCNC(=O)CCCCCCCCCCCCCCC(=O)O)C(=O)N[C@@H](CCC(N)=O)C(=O)N[C@@H](CCC(N)=O)C(=O)N[C@@H](CC(=O)O)C(=O)N[C@@H](Cc1ccccc1)C(=O)N[C@H](C(=O)N[C@@H](CC(N)=O)C(=O)N[C@@H](Cc1c[nH]c2ccccc12)C(=O)N[C@@H](CC(C)C)C(=O)N[C@@H](CCC(=O)O)C(=O)N[C@@H](C)C(=O)N[C@@H](CCC(N)=O)C(=O)N[C@@H](CCCCN)C(=O)N1CCC[C@H]1C(=O)N[C@@H](CO)C(=O)N[C@@H](CO)C(=O)NCC(=O)N[C@@H](C)C(=O)N1CCC[C@H]1C(=O)N1CCC[C@H]1C(=O)N1CCC[C@H]1C(=O)N[C@@H](CO)C(=O)O)C(C)C)[C@@H](C)CC
B5: AT622 (peptide)
peptide: EGTFISDYSIASDKIK(C16 diacid)QQDFVNWLLAQKPSSGAPPPS-OH
modifications: N-terminus assumed
SMILES: CC[C@H](C)[C@H](NC(=O)[C@H](CO)NC(=O)[C@H](Cc1ccc(O)cc1)NC(=O)[C@H](CC(=O)O)NC(=O)[C@H](CO)NC(=O)[C@@H](NC(=O)[C@H](Cc1ccccc1)NC(=O)[C@@H](NC(=O)CNC(=O)[C@@H](N)CCC(=O)O)[C@@H](C)O)[C@@H](C)CC)C(=O)N[C@@H](C)C(=O)N[C@@H](CO)C(=O)N[C@@H](CC(=O)O)C(=O)N[C@@H](CCCCN)C(=O)N[C@H](C(=O)N[C@@H](CCCCNC(=O)CCCCCCCCCCCCCCC(=O)O)C(=O)N[C@@H](CCC(N)=O)C(=O)N[C@@H](CCC(N)=O)C(=O)N[C@@H](CC(=O)O)C(=O)N[C@@H](Cc1ccccc1)C(=O)N[C@H](C(=O)N[C@@H](CC(N)=O)C(=O)N[C@@H](Cc1c[nH]c2ccccc12)C(=O)N[C@@H](CC(C)C)C(=O)N[C@@H](CC(C)C)C(=O)N[C@@H](C)C(=O)N[C@@H](CCC(N)=O)C(=O)N[C@@H](CCCCN)C(=O)N1CCC[C@H]1C(=O)N[C@@H](CO)C(=O)N[C@@H](CO)C(=O)NCC(=O)N[C@@H](C)C(=O)N1CCC[C@H]1C(=O)N1CCC[C@H]1C(=O)N1CCC[C@H]1C(=O)N[C@@H](CO)C(=O)O)C(C)C)[C@@H](C)CC

This assay addresses T1, human GIP receptor. Kind of assay: cell-based or functional assay.
As to B1, the “cAMP agonism % Emax” value amounted to 0%, the “cAMP antagonism” value worked out at 1.36 nM, the “cAMP antagonism % inhib” value amounted to 93% and the “cAMP antagonism pIC50” value is 8.9.

Regarding B2, the “cAMP agonism % Emax” value amounted to 0%, the “cAMP antagonism” value was 3.16 nM, the “cAMP antagonism % inhib” value worked out at 98% and the “cAMP antagonism pIC50” value came out at 8.5.

On to B3, for which the “cAMP agonism % Emax” value was 0%, the “cAMP antagonism” value stood at 3.98 nM, the “cAMP antagonism % inhib” value turned out to be 93% and the “cAMP antagonism pIC50” value was 8.4.

As to B4, the “cAMP agonism % Emax” value came to 0%, the “cAMP antagonism” value was found to be 100 nM, the “cAMP antagonism % inhib” value is around 90% and the “cAMP antagonism pIC50” value was around 7.

For B5, the “cAMP agonism % Emax” value worked out at 14%, the “cAMP antagonism” value was 31.6 nM, the “cAMP antagonism % inhib” value worked out at 77% and the “cAMP antagonism pIC50” value was 7.5.
